Measurements reported in patent US20100166708.

Molecular target: T1, tumor necrosis factor receptor (TNFR)-associated factor 1, Q13077
T1 chain: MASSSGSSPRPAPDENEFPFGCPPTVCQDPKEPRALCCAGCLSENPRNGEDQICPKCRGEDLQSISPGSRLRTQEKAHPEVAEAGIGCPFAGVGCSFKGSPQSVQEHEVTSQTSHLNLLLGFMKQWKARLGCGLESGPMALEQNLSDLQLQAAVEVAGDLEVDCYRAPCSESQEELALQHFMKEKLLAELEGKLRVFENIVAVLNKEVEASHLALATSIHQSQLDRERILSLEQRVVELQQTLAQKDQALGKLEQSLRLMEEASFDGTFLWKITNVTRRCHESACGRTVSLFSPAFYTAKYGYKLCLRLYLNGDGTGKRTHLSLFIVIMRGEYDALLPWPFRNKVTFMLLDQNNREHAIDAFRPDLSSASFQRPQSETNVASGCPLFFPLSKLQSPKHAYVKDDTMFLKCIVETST

B1: caspase 8 (protein)
chain: MDFSRNLYDIGEQLDSEDLASLKFLSLDYIPQRKQEPIKDALMLFQRLQEKRMLEESNLSFLKELLFRINRLDLLITYLNTRKEEMERELQTPGRAQISAYRVMLYQISEEVSRSELRSFKFLLQEEISKCKLDDDMNLLDIFIEMEKRVILGEGKLDILKRVCAQINKSLLKIINDYEEFSKERSSSLEGSPDEFSNGEELCGVMTISDSPREQDSESQTLDKVYQMKSKPRGYCLIINNHNFAKAREKVPKLHSIRDRNGTHLDAGALTTTFEELHFEIKPHDDCTVEQIYEILKIYQLMDHSNMDCFICCILSHGDKGIIYGTDGQEAPIYELTSQFTGLKCPSLAGKPKVFFIQACQGDNYQKGIPVETDSEEQPYLEMDLSSPQTRYIPDEADFLLGMATVNNCVSYRNPAEGTWYIQSLCQSLRERCPRGDDILTILTEVNYEVSNKDDKKNMGKQMPQPTFTLRKKLVFPSD
  cleavage of TRAF1 to N-terminal TRAF1 (western blot, normal human keratinocytes): The overexpression of TRIF caused caspase 8-dependent cleavage of TRAF1 to release N-terminal TRAF1 (N-TRAF1) (FIG. 14e), which was prevented by caspase 8 inhibitor (FIG. 14f)
